Patent publication US7052851B2, “Crystal structure of cysteine protease” (Novartis International AG, priority 1996, dated 2006)
The star is where a group is joined. CH2F = FC*

Target: T1, recombinant human CPP32 (Homo sapiens, UniProt P42574)
T1 construct: β-CHAIN; 29; 175; CPP32 P17 SUBUNIT; α-CHAIN; 176; 277; CPP32 P12 SUBUNIT; made in house; host or cells: E. coli BL21 (DE3), pET21b
T1 sequence (P42574 29-175): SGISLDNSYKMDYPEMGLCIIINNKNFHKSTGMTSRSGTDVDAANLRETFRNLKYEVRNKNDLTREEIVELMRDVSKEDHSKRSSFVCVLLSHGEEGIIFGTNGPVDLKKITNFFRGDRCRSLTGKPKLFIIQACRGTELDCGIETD
T1 sequence (P42574 176-277): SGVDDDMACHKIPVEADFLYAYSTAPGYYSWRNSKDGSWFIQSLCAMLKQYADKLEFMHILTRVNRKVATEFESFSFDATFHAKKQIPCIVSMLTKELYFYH
Experiment: CPP32 protease activity inhibition (enzyme treated with irreversible inhibitor before crystallization)
Format: biochemical
Conditions: slight excess (1.6×) of inhibitor added to purified recombinant human CPP32 (C-terminal 6His) in 50 mM DTT, 50 mM HEPES, pH 8.0, on ice
From the text: As defined herein, purified CPP32 is more than 95% homogeneous. Protein homogeneity is determinable according to analytical methods well-known in the art, e.g. sequence analysis, electrophoresis, spectroscopic or chromatographic techniques. The purified protein is enzymatically active. Appropriate assays for determining CPP32 protease activity towards a suitable substrate, e.g. a natural substrate, such as PARP, or a synthetic substrate which is cleavable by CPP32, is known in the art. Advantagously, a peptide, such as aminomethylcoumarin, is used as synthetic substrate. […]
Recombinant human CPP32 expressed in a soluble form in E. coli (E. coli BL21) is purified to homogeneity by Ni^2+ chromatography using an imidazole gradient (60 mM-1 M). […] The purified CPP32 protein is more than 95% homogeneous, as determined by SDS-PAGE (10–20% gradient gel), reverse phase high performance liquid chromatography (RP-HPLC), MALDI-TOF mass spectrometry, N-terminal sequence and amino acid analysis. […] The purified CPP32 protein which is a (p17p12)2 tetramer in solution, as analyzed by dynamic light scattering, compares to the published CPP32 amino acid sequence (Fernandes-Alnemri, T., Litwack, G. & Alnemri, E. S. (1994). J. Biol. Chem. 269, 30761–30764, FIG. 1, p.30762) as follows: […]

## Ac-Asp-Val-Ala-Asp-fluoromethylketone (Ac-DVAD-CH2F; SMILES CC(=O)N[C@@H](CC(=O)O)C(=O)N[C@H](C(=O)N[C@@H](C)C(=O)N[C@@H](CC(=O)O)C(=O)CF)C(C)C)
  enzyme inhibited: 99.9%
